Data as given in patent publication US20190085097A1 (published 2019).

How the values were obtained:
human plasminogen = molecular target: T1, human plasminogen (human, UniProt P00747 20-810); experiment: saturation binding ELISA, human plasminogen coated at 2 ug/ml, one-site hyperbola fit
T1 construct: also called h Pg

human plasmin = human plasmin (human, UniProt P00747 97-810, limits assumed); experiment: cell-based or functional assay
bovine serum albumin = molecular target: T2, bovine serum albumin (bovine, UniProt P02769 25-607); experiment: ELISA, antigen coated at 10 ug/ml, antibody supernatant, compared with anti-digoxin control
T2 construct: also called BSA
Method: (§1) Then goat anti mouse antibody conjugated with HRP (1:5000, Sc-2005, Santa Cruz) was then added. The plate was washed after incubation for 1 h. TMB was added to the wells and absorbance at 370nm was recorded.

mouse plasminogen = molecular target: T3, mouse plasminogen (mouse, UniProt P20918 20-812); experiment: as above
T3 construct: also called mouse (m) Pg
Method: as §1

human tPA = human tPA (human, UniProt P00750 36-562); experiment: as above
Method: as §1

T3 sequence (P20918 20-812 limits assumed): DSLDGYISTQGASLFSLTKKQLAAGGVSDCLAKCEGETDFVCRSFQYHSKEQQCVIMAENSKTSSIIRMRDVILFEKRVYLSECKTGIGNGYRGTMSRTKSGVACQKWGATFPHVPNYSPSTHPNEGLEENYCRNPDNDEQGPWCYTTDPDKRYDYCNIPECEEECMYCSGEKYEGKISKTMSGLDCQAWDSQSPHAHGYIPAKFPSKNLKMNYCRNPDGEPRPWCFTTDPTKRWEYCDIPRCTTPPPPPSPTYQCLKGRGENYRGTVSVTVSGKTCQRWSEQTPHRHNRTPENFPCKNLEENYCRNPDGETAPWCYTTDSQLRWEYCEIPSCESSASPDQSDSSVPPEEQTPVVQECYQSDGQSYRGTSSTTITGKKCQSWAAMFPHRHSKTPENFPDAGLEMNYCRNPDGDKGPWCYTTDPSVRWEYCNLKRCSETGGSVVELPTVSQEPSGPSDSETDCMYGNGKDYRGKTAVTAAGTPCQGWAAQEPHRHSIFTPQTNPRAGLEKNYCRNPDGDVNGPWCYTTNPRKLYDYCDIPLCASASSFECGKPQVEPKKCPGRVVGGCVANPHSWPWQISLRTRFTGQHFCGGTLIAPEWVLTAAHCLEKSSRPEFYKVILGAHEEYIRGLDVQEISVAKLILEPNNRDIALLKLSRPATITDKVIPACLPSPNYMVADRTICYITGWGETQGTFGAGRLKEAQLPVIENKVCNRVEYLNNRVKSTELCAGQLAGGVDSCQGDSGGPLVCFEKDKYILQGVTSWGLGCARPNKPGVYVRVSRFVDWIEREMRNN
T1 sequence (P00747 20-810 limits assumed): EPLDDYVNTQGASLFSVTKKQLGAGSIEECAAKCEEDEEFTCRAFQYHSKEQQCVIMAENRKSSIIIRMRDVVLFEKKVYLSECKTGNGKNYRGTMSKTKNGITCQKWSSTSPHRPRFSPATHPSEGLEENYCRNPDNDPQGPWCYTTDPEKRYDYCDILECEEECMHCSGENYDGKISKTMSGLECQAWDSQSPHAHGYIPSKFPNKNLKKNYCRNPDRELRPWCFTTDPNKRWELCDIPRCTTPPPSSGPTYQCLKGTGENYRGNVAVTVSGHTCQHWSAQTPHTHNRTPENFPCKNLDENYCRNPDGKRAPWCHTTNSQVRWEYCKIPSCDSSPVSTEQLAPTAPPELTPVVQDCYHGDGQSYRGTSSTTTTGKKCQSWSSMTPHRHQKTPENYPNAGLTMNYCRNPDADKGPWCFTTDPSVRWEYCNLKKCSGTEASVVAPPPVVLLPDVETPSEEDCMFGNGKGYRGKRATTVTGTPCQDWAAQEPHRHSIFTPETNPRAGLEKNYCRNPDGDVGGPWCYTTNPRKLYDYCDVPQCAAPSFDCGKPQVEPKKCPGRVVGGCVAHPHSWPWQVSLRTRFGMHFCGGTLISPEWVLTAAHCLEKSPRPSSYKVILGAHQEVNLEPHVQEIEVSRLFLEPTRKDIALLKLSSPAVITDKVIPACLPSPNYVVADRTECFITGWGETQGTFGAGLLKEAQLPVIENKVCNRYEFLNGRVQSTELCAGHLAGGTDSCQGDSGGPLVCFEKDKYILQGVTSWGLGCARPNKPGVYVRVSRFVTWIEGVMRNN
human plasmin, sequence (P00747 97-810 limits assumed): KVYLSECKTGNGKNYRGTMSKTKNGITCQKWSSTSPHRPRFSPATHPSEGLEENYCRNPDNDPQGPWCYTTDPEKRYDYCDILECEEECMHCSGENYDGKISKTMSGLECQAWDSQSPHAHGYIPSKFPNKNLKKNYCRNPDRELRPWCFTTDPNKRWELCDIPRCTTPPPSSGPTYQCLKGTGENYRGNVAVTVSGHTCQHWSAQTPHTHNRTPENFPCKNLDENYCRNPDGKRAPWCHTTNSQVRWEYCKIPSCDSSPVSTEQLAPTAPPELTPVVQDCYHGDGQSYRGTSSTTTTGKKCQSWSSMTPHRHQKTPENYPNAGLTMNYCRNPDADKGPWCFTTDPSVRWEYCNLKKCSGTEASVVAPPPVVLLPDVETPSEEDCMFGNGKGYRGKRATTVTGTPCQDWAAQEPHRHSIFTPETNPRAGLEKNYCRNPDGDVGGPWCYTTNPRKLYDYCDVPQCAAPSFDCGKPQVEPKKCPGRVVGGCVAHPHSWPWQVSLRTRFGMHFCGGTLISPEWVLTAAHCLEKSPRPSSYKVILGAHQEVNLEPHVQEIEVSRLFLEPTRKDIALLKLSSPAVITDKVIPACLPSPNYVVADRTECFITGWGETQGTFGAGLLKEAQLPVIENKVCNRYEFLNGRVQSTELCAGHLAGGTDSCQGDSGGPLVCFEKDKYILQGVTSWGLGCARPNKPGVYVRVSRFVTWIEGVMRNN
human tPA, sequence (P00750 36-562 limits assumed): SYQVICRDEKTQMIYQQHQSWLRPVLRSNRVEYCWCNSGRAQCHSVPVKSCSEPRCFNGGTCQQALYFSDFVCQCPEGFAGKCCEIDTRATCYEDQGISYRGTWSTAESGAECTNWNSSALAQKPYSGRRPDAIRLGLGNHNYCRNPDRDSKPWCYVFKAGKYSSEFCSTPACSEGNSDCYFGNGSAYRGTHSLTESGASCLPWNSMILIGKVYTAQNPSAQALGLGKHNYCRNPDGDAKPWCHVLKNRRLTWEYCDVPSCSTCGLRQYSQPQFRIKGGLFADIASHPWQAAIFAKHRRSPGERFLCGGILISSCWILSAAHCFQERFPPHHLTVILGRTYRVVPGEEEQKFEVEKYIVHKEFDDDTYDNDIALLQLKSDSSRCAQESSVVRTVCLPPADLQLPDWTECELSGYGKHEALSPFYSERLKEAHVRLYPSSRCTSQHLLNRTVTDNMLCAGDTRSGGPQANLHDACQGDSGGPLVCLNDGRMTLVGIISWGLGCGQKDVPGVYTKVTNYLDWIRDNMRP
T2 sequence (P02769 25-607 limits assumed): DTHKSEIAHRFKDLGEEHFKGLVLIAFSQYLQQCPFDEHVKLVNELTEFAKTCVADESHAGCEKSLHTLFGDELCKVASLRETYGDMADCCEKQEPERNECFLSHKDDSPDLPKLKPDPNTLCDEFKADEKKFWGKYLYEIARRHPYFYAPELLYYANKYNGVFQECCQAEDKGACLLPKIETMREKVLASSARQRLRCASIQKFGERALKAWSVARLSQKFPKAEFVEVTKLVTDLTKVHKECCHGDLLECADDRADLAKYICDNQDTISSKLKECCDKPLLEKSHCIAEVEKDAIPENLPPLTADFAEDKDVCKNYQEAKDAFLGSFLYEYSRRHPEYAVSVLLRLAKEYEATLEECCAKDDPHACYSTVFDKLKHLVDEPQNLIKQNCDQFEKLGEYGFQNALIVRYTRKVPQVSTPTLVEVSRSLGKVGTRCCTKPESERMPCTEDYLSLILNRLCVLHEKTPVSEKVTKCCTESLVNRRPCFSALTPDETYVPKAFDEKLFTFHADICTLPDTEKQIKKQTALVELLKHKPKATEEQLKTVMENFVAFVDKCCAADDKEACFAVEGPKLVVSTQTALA

B1: monoclonal antibody plasmin inhibitor (Pi) (antibody, mouse IgG1, kappa, V domains shown)
VH: EVKLLESGGGLVQPGGSLKLSCAASGFDFSRYWMSWVRQAPGKGLEWIGEINPDSSTINYTPSLKDKFIISRDNAKNSLYLQMSKVRSEDTALYYCASYCGYSYDALDCWGQGTSVTVSS
VL: DIQMTQSPSSLSASLGGKVSITCKASQDINKYISWYQHKPGKGPRLLIHYTSTLQPGIPSRFSGSGSGRDYSFSISNLEPEDIATYYCLQYDNLYTFGGGTKLEIKR
notes: Mouse hybridoma IgG purified from supernatant; also called Pi IgG; Pi MAb38
With B1 the Kd (human plasminogen) was 3.4 nM, the “plasmin-mediated fibrinolysis of human fibrin clots (125I-fibrin release, tPA)” value (human plasmin) was ~5000 fold more potent than EACA and the binding result (bovine serum albumin) was “no binding”. B1: no binding (mouse plasminogen); no binding (human tPA).
